In article PMC2864739, “Crystal Structure of the Neutralizing Llama VHH D7 and Its Mode of HIV-1 gp120 Interaction” (PLoS ONE, 2010):
Where a chain is given by its changes, count along the chain named.

B1: llama heavy chain antibody fragment VHH D7, wild type (VHH)
VHH: AVQLVESGGGLAQAGGSLRLSCTVSGRTSSSHDMGWFRQAPGKEREFVAAISWSGGTTNYADSVKGRFAISKDNAKNAVSLQMNSLKPEDTAVYYCAAKWRPLRYSDNPSNSDYNYWGQGTQVTVSS
notes: PDB 2xa3 holds D7 with the framework changes Val5Gln, Ala11Val, Ala61Val, Ala68Asp and Ser79Tyr against wild type D7
B2: VHH D7 Asn100D→Ala (VHH)
VHH: B1 VHH with N108A
notes: PDB 2xa3 holds D7 with five framework changes) with the stated CDR3 mutation; Chothia numbering (100D is an insertion position)
B3: VHH D7 double mutant Asn101→Tyr/Tyr102→Asp (VHH)
VHH: B1 VHH with N115Y, Y116D
notes: PDB 2xa3 holds D7 with five framework changes) with the stated CDR3 mutations; Chothia numbering; also called double mutant Asn^101Tyr^102
B4: VHH D7 Tyr100A→Ala (VHH)
VHH: B1 VHH with Y105A
notes: PDB 2xa3 holds D7 with five framework changes) with the stated CDR3 mutation; Chothia numbering (100A is an insertion position)
B5: VHH D7 Lys95→Ser (VHH)
VHH: B1 VHH with K99S
notes: PDB 2xa3 holds D7 with five framework changes) with the stated CDR3 mutation; Chothia numbering
B6: VHH D7 Trp96→Ala (VHH)
VHH: B1 VHH with W100A
notes: as for B5
B7: VHH D7 Leu99→Ala (VHH)
VHH: B1 VHH with L103A
notes: as for B5
B8: VHH D7 Asp100C→Ala (VHH)
VHH: B1 VHH with D107A
notes: PDB 2xa3 holds D7 with five framework changes) with the stated CDR3 mutation; Chothia numbering (100C is an insertion position)

Molecular target: T1, HIV-1 envelope glycoprotein gp120 (IIIB) (HIV-1 IIIB (HXB2 clone entry), UniProt P04578)
Assay: SPR; gp120 (IIIB) coupled covalently to a CM5 chip; D7 or D7 mutants at 25 and 100 nM flowed over; Biacore X; 10 mM HEPES pH 7.5, 100 mM NaCl, 0.05% P20; 30 µl/min; association 3 min, dissociation 15 min; simultaneous fit of association and dissociation
Conditions: both partners purified

Binder	Kd	koff	kon
B1	2.91 ± 0.87 nM	0.000551 s⁻¹	155000 M⁻¹ s⁻¹
B2	0.51 ± 0.02 nM	0.000128 s⁻¹	252000 M⁻¹ s⁻¹
B3	0.18 ± 0.15 nM	3.3e-05 s⁻¹	187000 M⁻¹ s⁻¹
B4	1.55 ± 0.07 nM	0.000359 s⁻¹	233000 M⁻¹ s⁻¹
B5	377 ± 276 nM	0.00236 s⁻¹	13000 M⁻¹ s⁻¹
B6	27.9 ± 20.5 nM	0.00313 s⁻¹	146000 M⁻¹ s⁻¹
B7	69.9 ± 14.2 nM	0.005 s⁻¹	14000 M⁻¹ s⁻¹
B8	0.84 ± 0.12 nM	0.000199 s⁻¹	236000 M⁻¹ s⁻¹

Molecular target: T1, HIV-1 envelope glycoprotein gp120 (IIIB)
Assay: cell-based or functional assay
Conditions: not given

Binder	IC50 of neutralisation of HIV-1 IIIB in TZM-bl cells, Average	IC50 of neutralisation of HIV-1 IIIB in TZM-bl cells, Exp1	IC50 of neutralisation of HIV-1 IIIB in TZM-bl cells, Exp2
B1	0.054 µg/mL	0.066 µg/mL	0.041 µg/mL
B3	0.011 µg/mL	0.017 µg/mL	0.005 µg/mL
B4	0.023 µg/mL	0.028 µg/mL	0.018 µg/mL
B5	3 µg/mL	3.43 µg/mL	2.64 µg/mL
B6	2.6 µg/mL	2.72 µg/mL	2.43 µg/mL
B7	0.69 µg/mL	0.817 µg/mL	0.56 µg/mL
B8	0.027 µg/mL	0.4 µg/mL	0.014 µg/mL
